The EC50 (read off the curve) is the concentration at which the effect is half-maximal.

EC50 (read off the curve) data for one molecule are collected here from patent US20250264433A1.

For the assay, the target named is peptide #49+50 (combined sequences of EspB peptides #49 and #50) (Enteropathogenic Escherichia coli (EPEC)). Briefly: ELISA, plate coated with peptide #49+50, serially diluted mAb, anti-human IgG-HRP.

B1: mAb-EspB-B7 (antibody, V domains shown)
VH: EVQLLESGGGLVQPGGSLRLSCAASGFTFSHYAMNWVRQAPGKGLEWVSAINSNGDSTYYPDTVKDRFTISRDNSKNTLYLQMNSLRAEDTAVYYCARDRRAGYFDYWGQGTLVTVSS
VL: DIVLTQPPSASGTPGQRVTISCSGSRDNIGKNYVSWYQQLPGTAPKLLIYRNNQRPSGVPDRFSGSKSGTSASLAISGLRSEDEADYYCSAWDTSLNAYVFGPGTQLTVL
For the molecule B1, the EC50 (read off the curve) came out at 0.4 µg/mL.
